{"source": "paper PMC5216522", "about": "“Pyruvic oxime dioxygenase from heterotrophic nitrifier Alcaligenes faecalis is a nonheme Fe^(II)-dependent enzyme homologous to class II aldolase” (Scientific Reports, 2017)", "substrate": "CC(=NO)C(=O)O", "test": "nitrite production by diazo-coupling, Hanes-Woolf plot", "type": "biochemical, Alcaligenes faecalis", "settings": "Fe(II)-reconstituted enzyme, 10 mM Tris-HCl pH 8.0, 1 mM sodium ascorbate, 100 μM FeSO4, 37 °C, co-substrate O2, kcat apparent, per subunit"}
{"protein": "rPOD (recombinant pyruvic oxime dioxygenase) (Alcaligenes faecalis) (protein, full length, 261 residues, 29,106 Da; pET21a(+) NdeI/XhoI with own stop codon, untagged; expressed in E. coli BL21(DE3)-CodonPlus; homotetramer (135 kDa by gel filtration); Fe(II)-reconstituted) MDTPLRDKSYFDERATKEMATHLQQVQRDTRETMAFACRILAMTEQEAGLAGQISVRSERPGAYWTLRFGLGFDEATPEDFIEVDRDLNTLSGEGMANPATRFHLWVYEARPDVNSIIHTHSPWATVLATARQPLVISQMDMTPLHNDCAFLGEWPGVPIADQEGVIISKALGDKRAIILAHHGYLTAGKSCQEATYLSVYLERAARLQVRAQAAFGPLTPVDDTLAAEAHDYLLKPSIVNATFDYWSRQTQGIAPLTKTR", "values": [{"measurement": "Km", "result": 470, "unit": "µM"}, {"measurement": "kcat", "result": 4.69, "unit": "s⁻¹"}]}
